Molecular target: Leukocyte Function Antigen-1 (LFA-1), on cells (Jurkat T cells, human T cells, PBMC) (human) (UniProt P20701)
Assay: cell-based or functional assay

Sequence of Leukocyte Function Antigen-1 (LFA-1), on cells (Jurkat T cells, human T cells, PBMC) (human) (P20701 26-1170, chain 1 of 2): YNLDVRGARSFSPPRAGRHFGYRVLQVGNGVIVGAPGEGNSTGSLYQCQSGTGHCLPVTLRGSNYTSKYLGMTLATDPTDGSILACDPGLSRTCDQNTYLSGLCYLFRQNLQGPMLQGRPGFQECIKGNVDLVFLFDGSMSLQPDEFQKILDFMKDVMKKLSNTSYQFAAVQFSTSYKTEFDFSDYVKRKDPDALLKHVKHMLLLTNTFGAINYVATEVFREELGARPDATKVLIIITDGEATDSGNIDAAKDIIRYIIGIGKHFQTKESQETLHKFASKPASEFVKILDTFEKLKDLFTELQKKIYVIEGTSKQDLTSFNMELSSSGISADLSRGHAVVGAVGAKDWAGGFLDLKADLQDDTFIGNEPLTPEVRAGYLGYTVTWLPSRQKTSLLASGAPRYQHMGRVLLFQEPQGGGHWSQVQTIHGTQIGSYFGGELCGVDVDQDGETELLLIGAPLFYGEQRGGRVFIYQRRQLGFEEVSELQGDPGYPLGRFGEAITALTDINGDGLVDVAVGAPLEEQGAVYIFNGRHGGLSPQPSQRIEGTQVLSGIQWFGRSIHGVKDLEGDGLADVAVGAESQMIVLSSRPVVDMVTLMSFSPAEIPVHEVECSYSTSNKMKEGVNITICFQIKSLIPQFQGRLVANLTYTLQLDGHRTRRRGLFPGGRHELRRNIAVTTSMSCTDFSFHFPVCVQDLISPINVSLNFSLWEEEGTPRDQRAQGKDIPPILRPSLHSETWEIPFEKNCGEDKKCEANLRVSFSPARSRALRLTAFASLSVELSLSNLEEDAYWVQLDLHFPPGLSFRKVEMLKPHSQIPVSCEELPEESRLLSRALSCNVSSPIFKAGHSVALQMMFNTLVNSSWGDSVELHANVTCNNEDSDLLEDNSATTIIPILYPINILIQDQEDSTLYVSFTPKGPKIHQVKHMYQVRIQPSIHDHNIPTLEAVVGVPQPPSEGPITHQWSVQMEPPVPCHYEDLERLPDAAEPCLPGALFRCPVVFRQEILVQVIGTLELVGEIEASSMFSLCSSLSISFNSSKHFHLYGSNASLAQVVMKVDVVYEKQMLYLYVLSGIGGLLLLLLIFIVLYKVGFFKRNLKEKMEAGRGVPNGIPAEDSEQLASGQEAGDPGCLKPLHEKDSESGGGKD
Sequence of Leukocyte Function Antigen-1 (LFA-1), on cells (Jurkat T cells, human T cells, PBMC) (human) (P05107 23-769, chain 2 of 2, further chain): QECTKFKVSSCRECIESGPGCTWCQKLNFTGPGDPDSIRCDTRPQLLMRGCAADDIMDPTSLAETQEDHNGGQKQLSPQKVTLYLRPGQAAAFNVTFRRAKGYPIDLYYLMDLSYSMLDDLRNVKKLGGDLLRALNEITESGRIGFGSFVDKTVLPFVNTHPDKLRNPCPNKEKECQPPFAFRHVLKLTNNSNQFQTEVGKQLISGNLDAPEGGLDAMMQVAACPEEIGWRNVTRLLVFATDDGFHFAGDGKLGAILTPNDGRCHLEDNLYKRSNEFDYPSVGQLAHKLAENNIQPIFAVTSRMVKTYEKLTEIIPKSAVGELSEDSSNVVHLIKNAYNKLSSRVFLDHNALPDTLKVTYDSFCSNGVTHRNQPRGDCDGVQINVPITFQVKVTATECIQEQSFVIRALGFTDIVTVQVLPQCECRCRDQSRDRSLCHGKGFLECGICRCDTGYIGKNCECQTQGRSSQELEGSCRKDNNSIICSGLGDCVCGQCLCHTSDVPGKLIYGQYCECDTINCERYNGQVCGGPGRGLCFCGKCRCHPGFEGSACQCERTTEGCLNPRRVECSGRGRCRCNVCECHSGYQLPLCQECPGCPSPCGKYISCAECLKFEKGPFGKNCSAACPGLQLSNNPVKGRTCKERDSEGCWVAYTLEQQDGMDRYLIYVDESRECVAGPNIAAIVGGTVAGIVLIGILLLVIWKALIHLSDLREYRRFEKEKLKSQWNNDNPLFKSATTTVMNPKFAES

Row | Binder | frequency of the perforin negative population, CD56+CD8med cells [%] | granzyme-A negative population, CD56+CD8high cells [%]
1 | recombinant human ICAM3-FC (Fc fusion, UniProt P32942 30-485, looked up, not shown: a dimerising Fc or GST) QEFLLRVEPQNPVLSAGGSLFVNCSTDCPSSEKIALETSLSKELVASGMGWAAFNLSNVTGNSRILCSVYCNGSQITGSSNITVYRLPERVELAPLPPWQPVGQNFTLRCQVEDGSPRTSLTVVLLRWEEELSRQPAVEEPAEVTATVLASRDDHGAPFSCRTELDMQPQGLGLFVNTSAPRQLRTFVLPVTPPRLVAPRFLEVETSWPVDCTLDGLFPASEAQVYLALGDQMLNATVMNHGDTLTATATATARADQEGAREIVCNVTLGGERREARENLTVFSFLGPIVNLSEPTAHEGSTVTVSCMAGARVQVTLDGVPAAAPGQPAQLQLNATESDDGRSFFCSATLEVDGEFLHRNSSVQLRVLYGPKIDRATCPQHLKWKDKTRHVLQCQARGNPYPELRCLKEGSSREVPVGIPFFVNVTHNGTYQCQASSSRGKYTLVVVMDIEAGSSH | 19.8 | 3.07
2 | recombinant human ICAM2-FC (Fc fusion, UniProt P13598 25-223, looked up, not shown: a dimerising Fc or GST) KVFEVHVRPKKLAVEPKGSLEVNCSTTCNQPEVGGLETSLDKILLDEQAQWKHYLVSNISHDTVLQCHFTCSGKQESMNSNVSVYQPPRQVILTLQPTLVAVGKSFTIECRVPTVEPLDSLTLFLFRGNETLHYETFGKAAPAPQEATATFNSTADREDGHRNFSCLAVLDLMSRGGNIFHKHSAPKMLEIYEPVSDSQ | 21.5 | 58.3

From patent publication US20150241442A1
